Drawing on paper PMC7772510, this text covers percent of the anticipated saturation level for 1 substance.

The target of the experiment is complement fragment iC3b (UniProt P01024). The experiment is described as follows: ELISA. For orientation: In an ELISA, binding on a coated surface is turned into a signal by an enzyme label.

GST-αM I-domain (domain or fragment) registered a percent of the anticipated saturation level at 8 µM of 50%.
